In patent US20240199758A1, “METHOD FOR ALLOWING IMMUNE CELLS INFILTRATION IN TUMORS” (Alethia Biotherapeutics Inc., priority 2021, published 2024):
“And” between values parts separate entries of the source, which are not always exact repeats. Equal values may be shown once. “Also recorded” adds a separate entry of the source.

Legend:
sCLU = target: T1, sCLU (Macaca mulatta, UniProt F6S885); test: sCLU serum concentrations after single dose administration; type: in vivo; conditions: Rhesus monkeys
T1 construct: from tissue; host or cells: serum of Rhesus monkeys (in vivo)
Excerpt: (§1) There was an approximate 70% increase in systemic exposure following repeated dosing from Day 1 to Day 26 which is consistent with the elimination half-life of AB-16B5 and the dosing intervals. […] The sCLU concentrations were generally back to their baseline levels after 3 to 5 days. The concurrent decrease in sCLU concentrations immediately following dosing with AB-16B5 is consistent with an antigen-sink phenomenon.

[1] = Non-clinical toxicity, weekly administration in monkeys
vimentin = test: Phase I study: immunohistochemistry on paired tumor biopsies, vimentin; type: in vivo, human; conditions: Subject 007, advanced gastric cancer
Description: Immunohistochemistry studies were conducted on paired tumor biopsies to determine if the treatment with AB-16B5 was associated with a reacquisition of an epithelial phenotype.

[2] = Non-clinical toxicity, weekly administration in rats; type: in vivo, Sprague-Dawley rats
Excerpt: This finding most likely reflects a slight antigenic stimulation by AB-16B5 in these 2 regional lymph nodes.

[3] = Non-clinical pharmacokinetics, single and repeat-dose studies in rats; type: in vivo, Sprague-Dawley rats
Excerpt: as §1

[4] = system: CA 15-3, CA-125, CA 19-9, CEA, LDH and PSA; test: Phase I study: circulating tumor biomarkers; type: in vivo, human
Description: Several well-established circulating biomarkers were evaluated to monitor the response to therapy. They included CA 15-3, CA-125, CA 19-9, CEA, LDH and PSA.

[5] = Non-clinical pharmacokinetics, single and repeat-dose studies in monkeys; type: in vivo, Rhesus monkeys
Excerpt: as §1

[6] = Phase I study AB-16B5-101: safety and tolerability
Description: The dose escalation was performed using 2 dose escalation schemes; the accelerated dose escalation scheme and the standard dose escalation scheme. Only 1 subject was enrolled in each of the first 2 cohorts as per protocol (accelerated dose escalation scheme).
Subjects received AB-16B5 by a 60-minute IV infusion once weekly on Days 1, 8 and 15 of each cycle of treatment.

[7] = system: advanced solid malignancy; test: Phase I study AB-16B5-101: tumor response (RECIST) and best overall response; type: in vivo, human
human tumor biopsies = test: Human tumor biopsies of patients treated with AB-16B5 as single agent (hematoxylin and eosin); type: in vivo; conditions: on-treatment biopsy after the second cycle
Description: In parallel human tumor biopsies of patients treated with AB-16B5 as single agent were analyzed (FIGS. 2B-2E). Needle biopsies obtained from a patient with metastatic thyroid cancer and form a patient with inoperable metastatic gastric cancer were sectioned and stained with hematoxylin and eosin. An on-treatment biopsy from a patient with thyroid cancer metastasic to the lungs was obtained after the second cycle treatment with AB-16B5. […] Hemosiderin-laden macrophages were observed inside necrotic areas some reflecting red blood cell extravasation associated with necrosis (not shown).

[8] = Phase I study AB-16B5-101: plasma pharmacokinetics (non-compartmental analysis); type: in vivo, human; conditions: for AUC 0-t / Cmax / Thalf: mean; for AUC 0-t / Cmax / Thalf / Tmax: plasma; for Tmax: median;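 on AUC 0-t: ng·h/mL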
Excerpt: Plasma PK parameters for AB-16B5 were derived from the concentration-time profiles following the first dose of Cycle 1 and the first dose of Cycle 2 using a non-compartmental analysis (NCA) with Phoenix WinNonlin.

[9] = Subject 001, Pancreatic, 1.5 mg/kg, 2 total cycles
[10] = Subject 002, Endometrium, 3.0 mg/kg, 4 total cycles
[11] = Subject 003, Soft Tissue Sarcoma, 6.0 mg/kg, 2 total cycles
[12] = Subject 005, Prostate, 6.0 mg/kg, 2 total cycles
[13] = Subject 010, Colorectal, 12.0 mg/kg, 4 total cycles
[14] = Subject 012, Breast, 12.0 mg/kg, 2 total cycles
[15] = Subject 013, Prostate, 12.0 mg/kg, 2 total cycles
[16] = Subject 014, Vulvar Melanoma, 12.0 mg/kg, 2 total cycles
[17] = thyroid cancer metastatic to the lungs, FIG. 2B

T1 sequence (F6S885 22-448): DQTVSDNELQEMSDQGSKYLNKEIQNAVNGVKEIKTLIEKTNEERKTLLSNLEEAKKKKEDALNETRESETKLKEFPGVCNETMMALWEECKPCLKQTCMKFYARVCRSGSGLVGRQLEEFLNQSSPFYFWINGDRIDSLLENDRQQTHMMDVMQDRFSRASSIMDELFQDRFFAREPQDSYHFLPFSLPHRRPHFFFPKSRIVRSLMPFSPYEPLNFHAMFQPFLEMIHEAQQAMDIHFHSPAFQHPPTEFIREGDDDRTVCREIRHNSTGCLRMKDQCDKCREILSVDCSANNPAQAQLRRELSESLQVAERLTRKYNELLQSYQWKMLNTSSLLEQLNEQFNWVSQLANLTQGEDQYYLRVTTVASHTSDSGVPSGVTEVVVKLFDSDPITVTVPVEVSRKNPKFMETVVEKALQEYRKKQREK

## AB-16B5: humanized IgG2 monoclonal antibody targeting sCLU for the inhibition of cancer-associated EMT; light chain SEQ ID NO:11, heavy chain SEQ ID NO:12
sCLU
  sCLU serum concentrations following dosing: decreased significantly
[1]; monkeys, 20, 60 and/or 100 mg/kg
  mean albumin, globulin, A/G and phosphorus levels: Slight changes
[1]; monkeys, weekly administration
  NOAEL: 100 mg/kg/dose
vimentin
  vimentin expression after treatment: loss of vimentin expression
[2]; rat, in vivo
  incidence of minimal lymphoid hypercellularity, mandibular lymph node: 1/20
  incidence of minimal lymphoid hypercellularity, mesenteric lymph node: 2/20
  reversibility of lymphoid hypercellularity: complete reversibility
  treatment-related clinical signs, changes in body weight, food consumption, ophthalmology, clinical pathology, organ weights: did not result in any treatment-related clinical signs
  treatment-related macroscopic changes: no treatment-related macroscopic changes
[2]; rats, weekly administration
  No Observable Adverse Effect Level (NOAEL): 100 mg/kg/dose
[3]
  systemic exposure over 24 hours versus dose: increased with increasing dose levels in a dose proportional manner
[3]; Day 1 to Day 26
  increase in systemic exposure following repeated dosing: ~70%
[3]; infusion, single and repeat-dose
  peak serum AB-16B5 concentrations: reached shortly after the start of infusion
[4]; circulating
  level of CEA: remained stable or decreased in few patients
[4]; circulating CA 15-3, CA-125, CA 19-9, CEA, LDH, PSA, correlated with disease progression
  tumor biomarker levels: increased over time
[5]; monkeys
  systemic exposure versus dose: increased with increasing dose levels in a generally greater than dose proportional manner
[5]; monkeys, infusion, single and repeat-dose
  peak serum AB-16B5 concentrations: reached shortly after the start of infusion
[5]; monkeys, repeated dosing
  systemic exposure once weekly versus twice weekly: no notable differences in systemic exposure
[5]; repeated dosing
  accumulation for AUC0-72: a lower extent of accumulation was observed
  drug accumulation in terms of Cmax: no evidence of drug accumulation
[6]; 1.5 to 12.0 mg/kg
  dose-related trend in the incidence of AEs: no dose-related trend
[6]; 1.5 to 12.0 mg/kg once weekly, 15 subjects
  dose-limiting toxicity: No dose-limiting toxicity was observed; also recorded: No dose-limiting toxicities were identified
[6]; 5 of 15 subjects
  subjects reporting SAEs: 33%
[6]; 15 subjects
  AEs of Grade 3 to 5: 12
  number of SAEs: 6 and 5
  subjects reporting AEs of Grade 3 to 5: 8 subjects
[6]; 15 subjects, all causalities
  total AEs reported: 167
[6]; 60-minute IV weekly infusion, doses up to 12 mg/kg
  safety and tolerability: safe and well tolerated
[6]; Grade 3 infusion related reaction and Grade 3 rash
  AEs of Grade 3 to 5 related to AB-16B5: 2
[6]; Subjects 004 and 014, associated with progression of the disease
  deaths: Two deaths were reported
[6]; in vivo
  grade of drug-related AEs: mainly of Grade 1 or 2
  most frequently reported AEs (all causalities): nausea, abdominal pain, back pain, vomiting, chills, dyspnea, constipation and pruritus
  most frequently reported AEs related to AB-16B5: nausea, pruritus, headache and rash
  relation of SAEs to AB-16B5: All SAEs were considered unrelated to AB-16B5; also recorded: none of which were judged related to the study treatment
[6]; out of 167 AEs
  AEs related (possibly, probably or definitely) to AB-16B5: 68
[6]; two subjects (004 and 011)
  subjects who discontinued the study due to an adverse event: 13%
[7]; RECIST-evaluable population
  subjects with best overall response progressive disease (PD): 43%
[7]; [9]
  Best Overall Response: PD (progressive disease (PD))
  Tumor Response at Last Assessment: Non-Target Lesions: PD (New
  Tumor Response at Last Assessment: Target Lesions: PD (progressive disease (PD))
[7]; [10]
  Tumor Response at Last Assessment: Non-Target Lesions: Non-CR/
  Tumor Response at Last Assessment: Target Lesions: PD (progressive disease (PD))
[7]; [11]
  Best Overall Response: PD (progressive disease (PD))
  Tumor Response at Last Assessment: Non-Target Lesions: PD (New
[7]; Subject 004, Thyroid, 6.0 mg/kg, 17 total cycles
  Tumor Response at Last Assessment: Non-Target Lesions: Non-CR/
[7]; [12]
  Best Overall Response: PD (progressive disease (PD))
  Tumor Response at Last Assessment: Non-Target Lesions: Non-CR/
  Tumor Response at Last Assessment: Target Lesions: PD (progressive disease (PD))
[7]; Subject 006, Breast, 9.0 mg/kg, 3 total cycles
  Tumor Response at Last Assessment: Non-Target Lesions: Non-CR/
[7]; Subject 007, Gastric, 9.0 mg/kg, 8 total cycles
  Tumor Response at Last Assessment: Non-Target Lesions: PD (New
[7]; Subject 008, Thyroid, 9.0 mg/kg, 4 total cycles
  Tumor Response at Last Assessment: Non-Target Lesions: PD (New
[7]; Subject 009, Lung, 12.0 mg/kg, 6 total cycles
  Tumor Response at Last Assessment: Non-Target Lesions: PD (New
[7]; [13]
  Tumor Response at Last Assessment: Non-Target Lesions: PD (New
  Tumor Response at Last Assessment: Target Lesions: PD (progressive disease (PD))
[7]; [14]
  Best Overall Response: PD (progressive disease (PD))
  Tumor Response at Last Assessment: Non-Target Lesions: PD (progressive disease (PD))
[7]; [15]
  Best Overall Response: PD (progressive disease (PD))
  Tumor Response at Last Assessment: Non-Target Lesions: PD (New
[7]; [16]
  Best Overall Response: PD (progressive disease (PD))
  Tumor Response at Last Assessment: Non-Target Lesions: PD (New
[7]; Subject 015, Ovarian Cancer, 12.0 mg/kg, 4 total cycles
  Tumor Response at Last Assessment: Non-Target Lesions: PD (New
[7]; patient with advanced gastric cancer
  time on treatment with stable disease (SD) with clinical benefit: 24 weeks
[7]; patient with follicular thyroid cancer
  duration of SD: ~1 year
Human tumor biopsies; metastatic gastric cancer, FIG. 2E
  immune infiltrate in tumor fragments: infiltrated by a mix neutrophilic and mononucleated immune cells infiltrate
Human tumor biopsies; [17]
  immune infiltrate in tumor fragment: A lymphoplasmacytic infiltrate was observed along the edge of the fragment
  necrosis of tumor fragments: essentially all tumor fragments were necrotic
[8]; Cycle 1, 1.5 mg/kg (N = 1)
  AUC 0-t: 230,321 ng * h/mL
  Cmax: 17,958 ng/mL
  Thalf: 9.35 h
  Tmax: 1.17 h
[8]; Cycle 1, 3.0 mg/kg (N = 1)
  AUC 0-t: 645,602 ng * h/mL
  Cmax: 50,736 ng/mL
  Thalf: 7.39 h
  Tmax: 1.08 h
[8]; Cycle 1, 6.0 mg/kg (N = 3)
  AUC 0-t: 1,357,773 ng * h/mL
  Cmax: 117,663 ng/mL
  Thalf: 6.99 h
  Tmax: 1.00 h
[8]; Cycle 1, 9.0 mg/kg (N = 3)
  AUC 0-t: 2,083,091 ng * h/mL
  Cmax: 162,103 ng/mL
  Thalf: 10.78 h
  Tmax: 2.00 h
[8]; Cycle 1, 12.0 mg/kg (N = 7)
  AUC 0-t: 4,045,786 ng * h/mL
  Cmax: 256,977 ng/mL
  Thalf: 11.99 h
  Tmax: 1.12 h
[8]; Cycle 1, dose range of 3.0 to 12.0 mg/kg
  increase of mean Cmax and AUC0-t with the dose: dose proportional
[8]; Cycle 2, 1.5 mg/kg (N = 1)
  AUC 0-t: 188,584 ng * h/mL
  Cmax: 15,662 ng/mL
  Thalf: 7.97 h
  Tmax: 1.00 h
[8]; Cycle 2, 3.0 mg/kg (N = 1)
  AUC 0-t: 688,934 ng * h/mL
  Cmax: 61,466 ng/mL
  Thalf: 6.82 h
  Tmax: 1.05 h
[8]; Cycle 2, 6.0 mg/kg (N = 3)
  AUC 0-t: 1,351,156 ng * h/mL
  Cmax: 120,466 ng/mL
  Thalf: 7.70 h
  Tmax: 1.03 h
[8]; Cycle 2, 9.0 mg/kg (N = 3)
  AUC 0-t: 2,459,988 ng * h/mL
  Cmax: 163,840 ng/mL
  Thalf: 13.75 h
  Tmax: 1.08 h
[8]; Cycle 2, 12.0 mg/kg (N = 7)
  AUC 0-t: 4,147,243 ng * h/mL
  Cmax: 230,268 ng/mL
  Thalf: 21.04 h
  Tmax: 1.04 h
[8]; Cycle 2, dose range of 3.0 to 12.0 mg/kg
  increase of mean Cmax and AUC0-t with the dose: dose proportional
[8]; across all dose levels
  systemic exposure versus dose: increased in a dose proportional manner
[8]; between Cycle 1 and Cycle 2
  accumulation of AB-16B5: No significant accumulation
